Data published in publication PMC11667159 (The Journal of Biological Chemistry, 2024).

T1: VC1 domain of human RAGE (receptor for advanced glycation end products), biotinylated (human, UniProt Q15109 23-226, biotin (EZ-Link Sulfo-NHS-Biotin))
T1 chain: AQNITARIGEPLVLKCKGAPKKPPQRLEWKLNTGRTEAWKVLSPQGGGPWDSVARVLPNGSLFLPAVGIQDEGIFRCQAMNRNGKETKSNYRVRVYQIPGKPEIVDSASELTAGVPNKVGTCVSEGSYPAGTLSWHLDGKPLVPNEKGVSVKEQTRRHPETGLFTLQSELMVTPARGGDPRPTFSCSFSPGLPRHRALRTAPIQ


Legend:
[1] = target: dimeric S100B (human, recombinant) (Homo sapiens, UniProt P04271)
[2] = target: tetrameric S100B (human, recombinant) (human, UniProt P04271)
[3] = target: anti-S100B nanobody Nb12 (llama); experiment: BLI; Nbs (20 μg/ml) loaded on Ni-NTA biosensor; S100B dimer or tetramer 25-250 nM in solution; 25 °C; 50 mM Tris-HCl pH 7.4, 150 mM NaCl; global 1:1 fit
Chain of anti-S100B nanobody Nb12 (llama) (heavy, as listed by the source): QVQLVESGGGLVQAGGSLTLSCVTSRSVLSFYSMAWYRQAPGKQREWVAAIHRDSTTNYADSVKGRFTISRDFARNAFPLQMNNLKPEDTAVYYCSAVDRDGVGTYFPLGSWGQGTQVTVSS

[4] = target: T2, VC1 domain of human RAGE (receptor for advanced glycation end products), biotinylated (human, UniProt Q15109 23-226, biotin (EZ-Link Sulfo-NHS-Biotin)); experiment: BLI; biotinylated RAGE-VC1 (25 μg/ml) loaded on streptavidin biosensor; S100B tetramer 50-750 nM in solution (controls: Nbs alone); 25 °C; PBS, 0.1% BSA, 0.05% Tween-20, 1.1 mM CaCl2; global 1:1 fit; conditions: both partners purified
T2 construct: RAGE, human, V and C1 immunoglobulin-like domains; also called RAGE-VC1; VC1 RAGE; source: E. coli Rosetta-gami B (DE3), purified

[5] = target: T2, VC1 domain of human RAGE (receptor for …); experiment: BLI; competition: biotinylated RAGE-VC1 on streptavidin biosensor; S100B tetramer 50-750 nM previously incubated with a twofold excess of Nb; 25 °C; PBS, 0.1% BSA, 0.05% Tween-20, 1.1 mM CaCl2; global 1:1 fit; conditions: both partners purified
[6] = target: T1, VC1 domain of human RAGE (receptor for …); experiment: BLI; in the presence of twofold excess Nb1
[7] = target: T1, VC1 domain of human RAGE (receptor for …); experiment: BLI; in the presence of twofold excess Nb18

Binder | binding result [1] | binding result [2] | further results
Nb22 (VHH) VHH: QVQLVESGGGLVQPGGSLRLSCAASGTSFSTNVMGWYRQAPGKQRELVARILGGSSTYYADSVKGRFTISRDNDKNTLYLQMNSLKPEDTAVYYCTAGFGPGYWGQGTQVTVSS | binds | – | –
Nb23 (VHH) VHH: QVQLVESGGGLVQPGGSLRLSCAASGTSFSTNVMGWYRQAPGKQRELVARMLGGSSTYYADSVKGRFTISRDNAKNTVYLQMNSLKPEDTAVYYCAAGFGPGYWGQGTQVTVSS | binds | – | –
Nb15 (VHH) VHH: QVQLVESGGGLVQAGGSLRLSCVASGILFSNNPMAWYRGAPGKQRELVARIWSGGRTIYGDSLKGRVTISRDNAKNTVYLQMNSLQPEDTAVYYCNSPYTNGWGQGTQVTVSS | binds | – | –
Nb27 (VHH) VHH: QVQLVESGGGLVQAGGSLKLSCAAPGWTVSISYMGWFRQAQGKEREFVGAMSWSDDRISYADSVKGRFTISRDNAKTTVFLQMTSLKPEDTAVYYCAVRRKWSESYDYWGQGTQVTVSS | binds | – | –
Nb19 (VHH) VHH: QVQLVESGGGLVQAGGSLRLSCAASGRTFSSYKMGWFRQAPGKEREFVAAFSWTGLNTNYADSVKGRFTISRDNAKSTVYLQMNSLKPEDTAVYYCAAGLGRTVIAGVDYWGQGTQVTVSS | binds | – | –
Nb14 (VHH) VHH: QVQLVESGGGLVQAGDSLRLSCAASARTFSIHAMGWFRQAPGKEREFVAAIGWTGGSPDYSDSAKGRFAISRDNAKNTVFLQMNSLKPEDTAVYYCAFHRAGSYDSTTSYDYWGQGTQVTVSS | binds | – | –
Nb20 (VHH) VHH: QVQLVESGGGLVQAGASLRLSCAASGRTFSSNYMGWFRQAPGKEREFVGAISWTSGSTSYADSVKGRFTISRDKAKNTVDLQMNSLNPDDTAVYYCAAGPSHRLWFSGRTLATYYDYWGQGTQVTVSS | binds | – | –
Nb25 (VHH) VHH: QVQLVESGGGLVQPGGSLRLSCTVSGIILGSRAMGWYRQTPGKQREFVATISTSGGTTNYADSVKGRFTISRDNAKNTVYLQMNSLKPEDTAIYYCNTLSQVLADRGWGQGTQVTVSS | binds | – | –
Nb26 (VHH) VHH: QVQLVESGGGLVRPGGSLRLSCTVSGIMFGSRAMGWYRQTPGKQRDFVATISTSGGTTNYADSVKGRFTISRDSAKNTVYLQMNSLKPEDTAVYYCNTVSAVLLDRGWGQGTQVTVSS | binds | – | –
Nb9 (VHH) VHH: QVQLVESGGGLVQAGESLRLSCAASGAVFRIFAVNWWRQAPGKQRELVATITSAGDTKYHDSVKGRFTISRDNAKNTVALQMNNLKPEDTAVYQCNVLKYWGQGTQVTVSS | – | binds | –
Nb10 (VHH) VHH: QVQLVESGGGLVQAGESLRLSCAASGAVFRIFAVNWWRQAPGKQRELVATITSAGDTKYHDSVKGRFTISRDIAKNTVALQMNNLKPEDTAVYQCNVLKYWGQGTQVTVSS | – | binds | –
Nb8 (VHH) VHH: QVQLVESGGGLVQAGGSLRLACVTSGNIFSISFMRWYRQAPGKQRELVATITSGDRTTYADSVKGRFTISRDNAKNTVYLQMNSLEPEDTAVYYCDINGLRYAGIRSWGQGTQVTVSS | – | binds | –
Nb16 (VHH) VHH: QVQLVESGGGLVQAGGSLRLSCAASGRTVSSKAMGWYRQAPGKQRELVASISTSGSTTVYADSVKGRFTISRDNAKATVYLRMNMLKPEDTAVYYCNYLVGPIDWGQGTQVTVSS | binds | – | –
Nb17 (VHH) VHH: QVQLVESGGGLVQAGGSLRLSCAASGRTVSSKAMGWYRQAPGKQRELVASISTSGSTTNYADSVKGRFTISRDNAEAPVYLQMNMLKPGDTAVYYCNYLVGPADWGQGTQVTVSS | binds | – | –
dimeric S100B (human, recombinant) (natural protein) MSELEKAMVALIDVFHQYSGREGDKHKLKKSELKELINNELSHFLEEIKEQEVVDKVMETLDNDGDGECDFQEFMAFVAMVTTACHEFFEHE | – | – | Kd [3]: 4000 nM
tetrameric S100B (human, recombinant) (natural protein, S100B, human, isolated as the tetramer (association of two homodimers); also called S100B-4mer; S100B tetramer; source: E. coli (BL21(DE3) E. Cloni EXPRESS), purified) MSELEKAMVALIDVFHQYSGREGDKHKLKKSELKELINNELSHFLEEIKEQEVVDKVMETLDNDGDGECDFQEFMAFVAMVTTACHEFFEHE | – | – | Kd [4]: ~29 nM; Kd [3]: 800 nM; fold increase of KD after incubation with Nb1, against S100B-4mer alone [5]: 3 fold; fold increase of KD after incubation with Nb18, against S100B-4mer alone [5]: 2.4 fold; Kd [6]: 89 nM; Kd [7]: 70 nM
Nb13 (VHH) VHH: QVQLVESGGGLVQPGGSLMLSCAASGFDFATYPMSWVRQAPGKEPEWIASIFPNGVTQSCADSVLGRFTISRDNTKNTLFLEMDRLKLADTAVYYCSKGGAAQSMFDDYWGQGTQVTVSS | – | binds | –
Nb28 (VHH) VHH: QVQLVESGGGLVQTGGSLNLSCAPFGTVLSDNDVGWYRQAPGSQRELVAEVDVRGGTNYADSVKGRFTISRDSAKKITFLQMNSLKSEDTAVYYCASDYGLGLLVGLPEYRGQGTQVTVSS | binds | – | –
Nb3 (VHH) VHH: QVQLVESGGGLVQAGRSLRLSCAASGRSFSIFAVNWWRQAPGNQRELVASITGGGSIRYADSVKGRFTISRDNAENTVYLQMNSLKPEDTAVYYCNTLNFWGQGTQVTVSS | – | binds | –
Nb4 (VHH) VHH: QVQLVESGGGLVQAGRSLRLSCAASGRSFSIFGVNWFRQAPENQRELVASITGGGSIRYADSVTGRFTISRDNAENTVYLQMNSLKPEDTAVYYCNILNFWGQGTQVTVSS | – | binds | –

Further lines, with some results ahead:

binding result [1] | binding result [2] | Binder | further results
– | binds | Nb6 (VHH) VHH: QVQLVESGGGLVQAGGSLRLSCAASGNILRLNAMAWYRQAPGKQRELVAYITYKGPTNYAESVKGRFTISRDMAKNTVYLQMNSLKPEDTAAYYCNADYIRTPGPFWGQGTQVTVSS | –
– | binds | Nb7 (VHH) VHH: QVQLVESGGGLVQAGGSLRLSCAASGNILRLNAMAWYRQAPGKQRELVADNTFKGPTNYADSVKGRFTISRDMAKNTVYLQMNSLKPEDTAAYYCNADYIRTPGHFWGQGTQVTVSS | –
– | binds | Nb11 (VHH) VHH: QVQLVESGGGLVQAGGSLRLSCAASASIGIFTVRWWRQAPGKQRALEQRELVAGISGGGTTNFADSVKGRFTISRDNDKKMVYLEMNNLKPEDTAVYYCNYLNSWGQGTQVTVSS | –
binds | – | Nb21 (VHH) VHH: QVQLVESGGGLVQAGDSLRLSCAASGRTFSNYGIGWFRQAPGKEREFVARVAWSTAITKYADAVKGRFTISRDNAKNMVYLQMNSLKPEDTAVYYCAAGKYGTAWITISGYDFWGQGTQVTVSS | –
binds | – | Nb24 (VHH) VHH: QVQLVESGGGLVQDGGSLRLSCAASGLTFSSLPMGWFRQAPGKEREFVAAMNWGEISTYYADSVKGRFTISRDNGKKTVYLQMNSLKPEDTAVYTCAADLRYSNLKYSRAGYWGQGTQVTVSS | –
– | binds | Nb5 (VHH) VHH: QVQLVESGGGLVQAGGSQRLSCTASGRIFSINDMGWYRQAPGDQRELVAVITSGGATNYTDSVKGRFTISRDDAKNTVYLQMNSLKPEDTAVYYCNADLRTSLKWPPVFHRYWGQGTQVTVSS | –
– | binds | Nb2 (VHH) VHH: QVQLVESGGGWVQAGGSLRLSCTASGSGFGIFAINWFRQAPGKERELVASLSSIGSPKYAESVKGRFTISRDNAKNTVYLQMNSLKPEDTAVYYCNYLNRWGQGTQVTVSS | –
